These results are taken from US20100136005A1.

One experiment addresses rhesus CD18 (rhesus) (UniProt H9Z8N5). Description: cell-based or functional assay.
The target of another experiment is human CD18 (human) (UniProt P05107). The experiment in a line: cell-based or functional assay.
Chain of human CD18 (human) (P05107 23-769): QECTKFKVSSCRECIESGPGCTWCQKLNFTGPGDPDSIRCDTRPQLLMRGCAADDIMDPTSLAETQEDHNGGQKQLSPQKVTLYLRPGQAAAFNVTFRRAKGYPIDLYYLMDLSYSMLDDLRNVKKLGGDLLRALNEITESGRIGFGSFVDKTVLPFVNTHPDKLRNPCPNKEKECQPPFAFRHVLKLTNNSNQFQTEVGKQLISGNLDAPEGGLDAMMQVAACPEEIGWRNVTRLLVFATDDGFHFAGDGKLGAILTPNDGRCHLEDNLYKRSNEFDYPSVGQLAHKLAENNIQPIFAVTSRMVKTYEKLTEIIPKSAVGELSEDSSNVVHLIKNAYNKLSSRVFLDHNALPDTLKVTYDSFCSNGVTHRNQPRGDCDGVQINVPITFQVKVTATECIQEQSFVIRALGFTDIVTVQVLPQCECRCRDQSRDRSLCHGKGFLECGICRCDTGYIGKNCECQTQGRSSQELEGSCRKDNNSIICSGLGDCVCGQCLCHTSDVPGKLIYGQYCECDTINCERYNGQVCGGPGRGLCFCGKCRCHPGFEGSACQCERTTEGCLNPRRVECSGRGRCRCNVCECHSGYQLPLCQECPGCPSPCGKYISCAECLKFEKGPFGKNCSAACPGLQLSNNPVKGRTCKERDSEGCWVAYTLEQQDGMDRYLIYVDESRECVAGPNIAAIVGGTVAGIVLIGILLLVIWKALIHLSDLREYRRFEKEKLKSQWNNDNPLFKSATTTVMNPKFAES

In the experiment with rhesus CD18 (rhesus), murine anti-human CD18 antibody MHM23 showed an IC50 Value (nM), RhLy:HuICAM cell adhesion of 1.2 nM; an IC50 Value (nM), RhLy:HuK cell adhesion of 1.6 nM; an IC50 Value (nM), rhesus mixed lymphocyte response of 30.4 nM. For the same substance, the IC50 Value (nM), Rh/HuCD11a:HuK cell adhesion with human CD18 (human) amounted to 1.4 nM.
